Key:
[1] = target: GST-E2 (HCV envelope glycoprotein E2) (Hepatitis C virus) (UniProt P27958); test: competition; settings: decreased from 36.7% without aptamer
[2] = target: HCV envelope glycoprotein E2 (expressed on CT26-HCV-E2 cells) (Hepatitis C virus) (UniProt P27958); test: flow; settings: strongest binding among rounds; 8 ug ssDNA with 10^6 cells
Sequence of HCV envelope glycoprotein E2 (expressed on CT26-HCV-E2 cells) (Hepatitis C virus) (P27958 384-746): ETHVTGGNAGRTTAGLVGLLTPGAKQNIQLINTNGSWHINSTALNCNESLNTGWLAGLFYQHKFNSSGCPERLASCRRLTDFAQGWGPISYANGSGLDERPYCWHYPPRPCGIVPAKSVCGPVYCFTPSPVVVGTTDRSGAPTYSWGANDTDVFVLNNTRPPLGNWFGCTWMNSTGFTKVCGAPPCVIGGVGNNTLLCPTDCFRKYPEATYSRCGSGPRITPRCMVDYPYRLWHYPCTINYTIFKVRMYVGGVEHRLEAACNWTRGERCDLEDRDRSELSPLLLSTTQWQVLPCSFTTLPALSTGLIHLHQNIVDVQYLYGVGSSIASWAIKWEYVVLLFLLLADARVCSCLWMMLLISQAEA

Sequence of GST-E2 (HCV envelope glycoprotein E2) (Hepatitis C virus) (P27958 384-746): as above

Sequence: GCGGAATTCTAATACGACTCACTATAGGGAACAGTCCGAGCCNNNNNNNNNNNNNNNNNNNNNNNNNNNNNNGGGTCAATGCGTCATA [13th round ssDNA aptamer library]
- activity (% E2 binding to Huh 7.5.1 cells) [1]: 23.2
- binding (% cells bound) [2]: 89

— patent US20100184837
